Patent US20140213513A1 (Sanofi, priority 2012, published 2014)
*1 amine or outer side, *2 acyl side, *3 side chain or, on linkers, in order; H or OH if unused. Where no end group is shown, it is not given here. Side-chain parts run from the residue outwards. [ ]: non-standard residue; d: D form. The star is where a group is joined. γGlu = O=C(O)[C@H](CCC(=O)[*:2])N[*:1]; Palmitoyl = CCCCCCCCCCCCCCCC(=O)*; Aib = CC(C)(N)C(=O)O

How the values were obtained:
Test in all cases: cell-based or functional assay
human GLP-1 receptor = human GLP-1 receptor (human, UniProt P43220 24-463)
human GIP receptor = biological target: T1, human GIP receptor (human, UniProt P48546 22-466)
T1 sequence (looked up): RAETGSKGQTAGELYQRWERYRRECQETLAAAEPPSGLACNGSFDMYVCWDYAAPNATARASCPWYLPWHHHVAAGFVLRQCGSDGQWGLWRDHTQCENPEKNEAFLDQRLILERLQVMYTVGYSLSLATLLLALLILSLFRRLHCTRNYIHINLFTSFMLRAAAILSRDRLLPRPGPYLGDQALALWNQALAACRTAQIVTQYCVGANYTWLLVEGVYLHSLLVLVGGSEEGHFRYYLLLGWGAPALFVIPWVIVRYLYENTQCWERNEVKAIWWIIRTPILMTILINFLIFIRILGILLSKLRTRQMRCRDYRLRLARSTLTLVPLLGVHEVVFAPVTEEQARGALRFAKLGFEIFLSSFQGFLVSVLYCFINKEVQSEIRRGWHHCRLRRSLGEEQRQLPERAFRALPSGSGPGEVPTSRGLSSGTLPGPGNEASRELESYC

human glucagon receptor = human glucagon receptor (human, UniProt P47871 26-477)
Sequence of human glucagon receptor (P47871 26-477): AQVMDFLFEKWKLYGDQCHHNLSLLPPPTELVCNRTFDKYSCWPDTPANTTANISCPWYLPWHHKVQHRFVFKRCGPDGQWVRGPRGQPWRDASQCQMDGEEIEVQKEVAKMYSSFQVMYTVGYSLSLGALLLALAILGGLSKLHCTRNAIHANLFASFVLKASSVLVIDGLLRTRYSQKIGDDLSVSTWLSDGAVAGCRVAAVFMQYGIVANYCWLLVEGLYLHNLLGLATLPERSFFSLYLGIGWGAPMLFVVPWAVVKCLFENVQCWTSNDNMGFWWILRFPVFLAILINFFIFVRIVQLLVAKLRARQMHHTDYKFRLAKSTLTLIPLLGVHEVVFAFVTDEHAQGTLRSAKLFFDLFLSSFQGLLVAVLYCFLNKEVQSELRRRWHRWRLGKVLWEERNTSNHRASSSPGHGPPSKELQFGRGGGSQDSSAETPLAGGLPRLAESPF

Row | Binder | EC50 hGLP-1 R (human GLP-1 receptor) [nM] | EC50 hGIP R (human GIP receptor) [nM] | EC50 hGLUC R (human glucagon receptor) [nM]
1 | Y[Aib]QGTFTSDLSIQK([γGlu-Palmitoyl])EKRA[Aib][Aib]EFIEWLKNTGPSSGAPPPS-NH2 (N-terminus assumed; SMILES CCCCCCCCCCCCCCCC(=O)N[C@@H](CCC(=O)NCCCC[C@H](NC(=O)[C@H](CCC(N)=O)NC(=O)[C@@H](NC(=O)[C@H](CO)NC(=O)[C@H](CC(C)C)NC(=O)[C@H](CC(=O)O)NC(=O)[C@H](CO)NC(=O)[C@@H](NC(=O)[C@H](Cc1ccccc1)NC(=O)[C@@H](NC(=O)CNC(=O)[C@H](CCC(N)=O)NC(=O)C(C)(C)NC(=O)[C@@H](N)Cc1ccc(O)cc1)[C@@H](C)O)[C@@H](C)O)[C@@H](C)CC)C(=O)N[C@@H](CCC(=O)O)C(=O)N[C@@H](CCCCN)C(=O)N[C@@H](CCCNC(=N)N)C(=O)N[C@@H](C)C(=O)NC(C)(C)C(=O)NC(C)(C)C(=O)N[C@@H](CCC(=O)O)C(=O)N[C@@H](Cc1ccccc1)C(=O)N[C@H](C(=O)N[C@@H](CCC(=O)O)C(=O)N[C@@H](Cc1c[nH]c2ccccc12)C(=O)N[C@@H](CC(C)C)C(=O)N[C@@H](CCCCN)C(=O)N[C@@H](CC(N)=O)C(=O)N[C@H](C(=O)NCC(=O)N1CCC[C@H]1C(=O)N[C@@H](CO)C(=O)N[C@@H](CO)C(=O)NCC(=O)N[C@@H](C)C(=O)N1CCC[C@H]1C(=O)N1CCC[C@H]1C(=O)N1CCC[C@H]1C(=O)N[C@@H](CO)C(N)=O)[C@@H](C)O)[C@@H](C)CC)C(=O)O) [exendin-4 peptide analogue SEQ ID NO: 22] | 0.0085 | 0.102 | 2.21
2 | Y[Aib]QGTFTSDLSIQK([γGlu-Palmitoyl])EKRAA[Aib]YFIEWLKNTGPSSGAPPPS-NH2 (N-terminus assumed; SMILES CCCCCCCCCCCCCCCC(=O)N[C@@H](CCC(=O)NCCCC[C@H](NC(=O)[C@H](CCC(N)=O)NC(=O)[C@@H](NC(=O)[C@H](CO)NC(=O)[C@H](CC(C)C)NC(=O)[C@H](CC(=O)O)NC(=O)[C@H](CO)NC(=O)[C@@H](NC(=O)[C@H](Cc1ccccc1)NC(=O)[C@@H](NC(=O)CNC(=O)[C@H](CCC(N)=O)NC(=O)C(C)(C)NC(=O)[C@@H](N)Cc1ccc(O)cc1)[C@@H](C)O)[C@@H](C)O)[C@@H](C)CC)C(=O)N[C@@H](CCC(=O)O)C(=O)N[C@@H](CCCCN)C(=O)N[C@@H](CCCNC(=N)N)C(=O)N[C@@H](C)C(=O)N[C@@H](C)C(=O)NC(C)(C)C(=O)N[C@@H](Cc1ccc(O)cc1)C(=O)N[C@@H](Cc1ccccc1)C(=O)N[C@H](C(=O)N[C@@H](CCC(=O)O)C(=O)N[C@@H](Cc1c[nH]c2ccccc12)C(=O)N[C@@H](CC(C)C)C(=O)N[C@@H](CCCCN)C(=O)N[C@@H](CC(N)=O)C(=O)N[C@H](C(=O)NCC(=O)N1CCC[C@H]1C(=O)N[C@@H](CO)C(=O)N[C@@H](CO)C(=O)NCC(=O)N[C@@H](C)C(=O)N1CCC[C@H]1C(=O)N1CCC[C@H]1C(=O)N1CCC[C@H]1C(=O)N[C@@H](CO)C(N)=O)[C@@H](C)O)[C@@H](C)CC)C(=O)O) [exendin-4 peptide analogue SEQ ID NO: 23] | 0.0092 | 0.135 | 0.312
